These results are taken from patent CN116178540A (SANYOU BIO INC, dated 2023).

Assay [1] deals with T1, hANG2-His (human, UniProt O15123 19-496, limits assumed).
T1 construct: also called 人源ANG2; ANGPT2; not shown: C-terminal His tag
T1 sequence (looked up): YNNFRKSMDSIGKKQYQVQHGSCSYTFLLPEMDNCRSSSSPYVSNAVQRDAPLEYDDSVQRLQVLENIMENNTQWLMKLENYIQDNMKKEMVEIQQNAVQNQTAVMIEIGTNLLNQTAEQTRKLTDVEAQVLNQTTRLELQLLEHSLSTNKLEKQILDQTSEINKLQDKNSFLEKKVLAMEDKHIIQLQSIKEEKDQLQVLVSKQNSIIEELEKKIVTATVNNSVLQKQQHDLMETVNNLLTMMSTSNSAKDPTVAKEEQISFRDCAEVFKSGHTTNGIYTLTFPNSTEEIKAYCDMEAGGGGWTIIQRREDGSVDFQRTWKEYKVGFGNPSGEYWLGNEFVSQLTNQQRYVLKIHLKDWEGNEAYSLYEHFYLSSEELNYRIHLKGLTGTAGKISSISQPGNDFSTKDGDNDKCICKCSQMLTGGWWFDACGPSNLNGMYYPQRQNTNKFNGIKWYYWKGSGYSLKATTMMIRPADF
Kind of assay: BLI (Gator), antibody captured on sensor, hANG2-His 100/50/25 nM.

In assay [2] the target is T1, hANG2-His. The description is as above. The source holds these as a separate data set.
For assay [3], the target named is T2, hANG2-Fc (human, UniProt O15123).
T2 chain: T1 sequence (looked up)
Kind of assay: FACS competition (TIE2-HEK293).

The target of assay [4] is T3, hANG2-His (human, UniProt O15123).
T3 chain: T1 sequence (looked up)
Kind of assay: BLI. In general terms: In BLI a coated tip is dipped into the sample, and binding shifts an interference pattern.

Assay [5] concerns the target T2, hANG2-Fc. The experiment in a line: competition ELISA (TIE2 blocking). In general terms: An ELISA detects its analyte on a solid surface through an enzyme-linked reagent.
For assay [6], the target named is T3, hANG2-His. Kind of assay: ELISA.
Assay [7] deals with T4, hANG1-Fc (human, UniProt Q15389).
T4 chain: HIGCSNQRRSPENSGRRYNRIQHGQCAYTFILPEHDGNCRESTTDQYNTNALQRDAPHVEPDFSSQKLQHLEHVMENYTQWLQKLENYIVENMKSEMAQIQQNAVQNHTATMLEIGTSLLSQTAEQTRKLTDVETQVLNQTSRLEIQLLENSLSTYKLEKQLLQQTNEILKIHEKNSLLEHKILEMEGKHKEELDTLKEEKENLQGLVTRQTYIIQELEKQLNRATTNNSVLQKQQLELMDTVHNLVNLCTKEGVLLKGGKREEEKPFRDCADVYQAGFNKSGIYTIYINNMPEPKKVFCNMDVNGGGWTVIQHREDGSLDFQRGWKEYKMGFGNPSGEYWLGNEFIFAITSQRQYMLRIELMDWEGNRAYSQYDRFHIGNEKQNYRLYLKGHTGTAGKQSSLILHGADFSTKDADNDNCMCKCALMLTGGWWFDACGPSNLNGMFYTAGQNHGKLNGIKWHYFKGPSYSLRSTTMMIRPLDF
The experiment in a line: ELISA.

Numbering of substitutions follows the chain as printed.

B1: 抗体78A74-25 (antibody, IgG1, V domains shown)
VH: QVQLVESGGGLVKPGGSLRLSCAASGFTFSSYSMNWVRQAPGKGLEWVAVISYDGSNKYYADSVKGRFTISRDNSKNTLYLQMNSLRAEDTAVYYCAKATLDGYTAGYYYGMDVWGQGTTVTVSS
VL: EIVLTQSPATLSLSPGERATLSCRASQSVSSYLAWYQQKPGQAPRLLIYDASNRATGIPARFSGSGSGTDFTLTISSLEPEDFAVYYCQQRSNWPPELYFGQGTKVEIK
The Kd is the concentration at which binding is half-saturated. Higher therefore signals weaker binding. As usually defined, the koff is a measure of how fast the partners let go of each other. Higher therefore signals a short-lived complex. Usually kon stands for a measure of how fast the partners come together. Read a low kon as slow association. As to B1, in assay [1], the “fold affinity against nesvacumab” value is ~2 fold. In assay [2], the dissociation constant Kd was 0.828 nM, the koff came out at 0.000161 s⁻¹ and the association rate constant (kon) was determined as 194000 M⁻¹ s⁻¹.

B2: 抗体78A74-7 (antibody, IgG1, V domains shown)
VH: B1 VH
VL: B1 VL with Q90L, R91M, L98W, Y99T
As for B2, the “fold affinity against nesvacumab” value in assay [1] is ~2 fold. Moreover, in assay [2], the Kd is 0.544 nM, the koff came to 0.000103 s⁻¹ and the association rate constant (kon) was 189000 M⁻¹ s⁻¹.

B3: 抗体78A74-21 (antibody, IgG1, V domains shown)
VH: B1 VH with A99E
VL: B1 VL with S30G, W94G, L98W, Y99T
With B3, the “fold affinity against nesvacumab” value in assay [1] is ~2 fold. In assay [2], this molecule returned a Kd of 0.687 nM, an off-rate constant (koff) of 0.000132 s⁻¹ and a kon of 192000 M⁻¹ s⁻¹.

B4: 抗体78A74-36 (antibody, IgG1, V domains shown)
VH: B1 VH
VL: B1 VL with S92T, N93M, L98W, Y99T
On to B4, for which, in assay [2], binding was put at a Kd of 1.32 nM, the dissociation rate constant (koff) turned out to be 0.000263 s⁻¹ and the kon worked out at 200000 M⁻¹ s⁻¹.

B5: 抗体78A74-35 (antibody, IgG1, V domains shown)
VH: B1 VH
VL: B1 VL with E97A, L98M, Y99T
In assay [2], B5 showed a dissociation constant (Kd) of 1.52 nM, a dissociation rate constant (koff) of 0.000284 s⁻¹ and a kon of 187000 M⁻¹ s⁻¹.

B6: nesvacumab (antibody, V domains shown)
VH: EVQLVESGGGLVQPGGSLRLSCAASGFTFSSYDIHWVRQATGKGLEWVSAIGPAGDTYYPGSVKGRFTISRENAKNSLYLQMNSLRAGDTAVYYCARGLITFGGLIAPFDYWGQGTLVTVSS
VL: EIVLTQSPGTLSLSPGERATLSCRASQSVSSTYLAWYQQKPGQAPRLLIYGASSRATGIPDRFSGSGSGTDFTLTISRLEPEDFAVYYCQHYDNSQTFGQGTKVEIK
A word on the IC50: it is the concentration at which inhibition is half-maximal. As usually defined, the EC50 is the concentration that produces a half-maximal response. Read a high EC50 as a less potent agent. For B6, the values for the IC50 in assay [3] and in assay [5] were 0.362 µg/mL and 1.58 µg/mL, respectively. Binding in assay [4] was characterised by a dissociation constant (Kd) of 1.17 nM. Further, a half-maximal response in assay [6] (EC50) required 0.442 µg/mL. Moreover, the binding result in assay [7] is “no binding”.

B7: 17 (antibody, V domains shown)
VH: EVQLVESGGGVVKPGGSLRLSCAASGFTFNKYTINWVRQTPGKGLELVADISSGGDYVNYADSVKGRFTISRDNAKDSVYLLMNGLRAEDTAVYYCARDALTYSNNWLDSWGQGTLVTVSS
VL: DIQLTQSPSFLSASVGDRVTITCRASQGISSYLAWYQQKPGKAPKLLIYAASTLQSGVPSRFSGGGYGTDFTLTISSLQPEDFATYYCQQFESYPLTFGGGTRLEIK
Turning to B7, the IC50 was 0.323 µg/mL in assay [3] and 0.547 µg/mL in assay [5]. The molecule also gave an EC50 in assay [6] of 0.12 µg/mL. Further, the binding result in assay [7] is reported as “no binding”.
